The record followed here is patent US20230125614A1.

The target of test [1] is ARC40-GFP bait (S. cerevisiae ARC40, member of the Arp2/3 complex, fused with a C-terminal GFP epitope tag) (Saccharomyces cerevisiae) (UniProt P38328). In words: in vivo mRNA display co-purification, pooled yeast library, anti-GFP bead IP of ARC40-GFP, NGS read-out.
For test [2] the target is unchanged. In words: low-throughput in vivo mRNA display co-purification, individually cloned ORFs, anti-GFP bead IP of ARC40-GFP.

For “in vivo mRNA display library protein ARP2 (MCP-ARP2 fusion with purification tag) (from UniProt P32381 1-391)”, the results for the Display Score in test [1] and in test [2] were 0.55 and 1.8, respectively. For the substance “in vivo mRNA display library protein ARC18 (MCP-ARC18 fusion with purification tag) (from UniProt Q05933 1-178)”, the Display Score in test [1] is 3.3.

The substance “in vivo mRNA display protein MYO3 (MCP-MYO3 fusion, individually cloned for the low-throughput experiment) (from UniProt P36006 1-1272)” yielded a Display Score in test [2] of 1.9. “in vivo mRNA display library protein ARC35 (MCP-ARC35 fusion with purification tag) (from UniProt P53731 1-342)”: the Display Score in test [1] was 3.7. On to “in vivo mRNA display library protein ARC19 (MCP-ARC19 fusion with purification tag) (from UniProt P33204 1-171)”, for which the Display Score in test [1] stood at 3.9.
